In PMC1919475 one finds percent co-immunoprecipitated and EC50 data, which are given here for 4 substances.

Experiment [1] deals with ECFP-CSB expressed in CS1AN.S3.G2 cells (human) (UniProt Q03468). Description: co-IP.
For experiment [2], the target named is Cockayne syndrome B (CSB) protein, full-length, purified recombinant (human) (UniProt Q03468). Description: ELISA.
The target of experiment [3] is APE1, major human apurinic/apyrimidinic (AP) endonuclease, full-length, purified recombinant (human) (UniProt P27695). Nature of the experiment: ELISA.
Experiment [4] concerns the target APE1, endogenous in ECFP-CSB-CS1AN cell extracts (human (endogenous in CS1AN fibroblasts)) (UniProt P27695). Description: co-IP.

Regarding “APE1, endogenous in ECFP-CSB-CS1AN cell extracts (from UniProt P27695 1-318) (enzyme)”, in experiment [1], the percent co-immunoprecipitated was 5 to 50%. For the substance “APE1, major human apurinic/apyrimidinic (AP) endonuclease, full-length, purified recombinant (from UniProt P27695 1-318) (enzyme)”, in experiment [2], the EC50 was > 20 nM.

For the substance “Cockayne syndrome B (CSB) protein, full-length, purified recombinant (from UniProt Q03468 1-1493) (natural protein)”, the EC50 in experiment [3] is > 4.5 nM. In experiment [4], “ECFP-CSB expressed in CS1AN.S3.G2 cells (from UniProt Q03468 1-1493) (natural protein)” registered a percent co-immunoprecipitated of 5 to 50%.
